According to paper PMC9000915:

Biological target: gp41 subunit of ADA.CM.v4 Env on hVLPs (CTD truncated, stop codon at 756) (HIV-1 (subtype B isolate ADA))
Assay: cryo-EM structure; cryo-ET with sub-tomogram averaging of Env on purified, AT-2-treated ADA.CM.v4 hVLPs; C3 map 9.13 Å, C1 map 10.67 Å; PDB 6ULC fitted as rigid body

“gp41 subunit of ADA.CM.v4 Env on hVLPs (CTD truncated, stop codon at 756) (natural protein)” showed a stoichiometry N of 3.
